T1: 4H3041-bN
T1 chain: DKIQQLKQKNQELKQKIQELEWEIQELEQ

T2: 4H3381-bN
T2 chain: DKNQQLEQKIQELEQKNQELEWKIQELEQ

T3: 4H796-bN
T3 chain: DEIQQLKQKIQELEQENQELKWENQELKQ

T4: 4H2859-bN
T4 chain: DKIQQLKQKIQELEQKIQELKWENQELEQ

T5: 4H949-bN
T5 chain: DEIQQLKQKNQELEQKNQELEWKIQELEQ

T6: 4H932-bN
T6 chain: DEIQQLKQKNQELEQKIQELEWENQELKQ

T7: 4H2931-bN
T7 chain: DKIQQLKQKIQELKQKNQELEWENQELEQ

T8: 4H3364-bN
T8 chain: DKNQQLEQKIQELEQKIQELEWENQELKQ

T9: 4H2760-bN
T9 chain: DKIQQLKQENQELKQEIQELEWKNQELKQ

T10: 4H3297-bN
T10 chain: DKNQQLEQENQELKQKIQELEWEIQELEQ

T11: 4H349-bN
T11 chain: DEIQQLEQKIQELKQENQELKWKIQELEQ

T12: 4H730-bN
T12 chain: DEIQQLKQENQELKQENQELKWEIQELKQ

T13: 4H56-bN
T13 chain: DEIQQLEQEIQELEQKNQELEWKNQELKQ

T14: O5-bA
T14 chain: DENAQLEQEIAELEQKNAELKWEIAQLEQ

T15: O6-bA
T15 chain: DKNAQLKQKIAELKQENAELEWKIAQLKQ

T16: O8-bA
T16 chain: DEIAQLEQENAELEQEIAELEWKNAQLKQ

T17: O7-bA
T17 chain: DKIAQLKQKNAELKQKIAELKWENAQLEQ

T18: O4-bA
T18 chain: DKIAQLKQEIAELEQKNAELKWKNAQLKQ

T19: O9-bA
T19 chain: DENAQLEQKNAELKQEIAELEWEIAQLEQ


Key:
Experiment in all cases: two-hybrid library CCNG1;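 further: natural log of median RNA to DNA barcode read ratio; higher means stronger binding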
4H3041-bN = target: T1, 4H3041-bN
4H3381-bN = target: T2, 4H3381-bN
4H796-bN = target: T3, 4H796-bN
4H2859-bN = target: T4, 4H2859-bN
4H949-bN = target: T5, 4H949-bN
4H932-bN = target: T6, 4H932-bN
4H2931-bN = target: T7, 4H2931-bN
4H3364-bN = target: T8, 4H3364-bN
4H2760-bN = target: T9, 4H2760-bN
4H3297-bN = target: T10, 4H3297-bN
4H349-bN = target: T11, 4H349-bN
4H730-bN = target: T12, 4H730-bN
4H56-bN = target: T13, 4H56-bN
O5-bA = target: T14, O5-bA
O6-bA = target: T15, O6-bA
O8-bA = target: T16, O8-bA
O7-bA = target: T17, O7-bA
O4-bA = target: T18, O4-bA
O9-bA = target: T19, O9-bA

interaction score (4H3041-bN)	interaction score (4H3381-bN)	interaction score (4H796-bN)	interaction score (4H2859-bN)	interaction score (4H949-bN)	interaction score (4H932-bN)	interaction score (4H2931-bN)	interaction score (4H3364-bN)	interaction score (4H2760-bN)	interaction score (4H3297-bN)	interaction score (4H349-bN)	interaction score (4H730-bN)	interaction score (4H56-bN)	interaction score (O5-bA)	interaction score (O6-bA)	interaction score (O8-bA)	interaction score (O7-bA)	interaction score (O4-bA)	interaction score (O9-bA)	Binder
-0.517	0.638	0.11	1.03	0.472	-1.77	-0.107	-0.234	-0.578	-1.61	-1.63	-0.45	-0.482							DKIQQLKQENQELKQEIQELEWKNQELKQ [4H2760-bN]
													-0.0834	1.17	-1.68	0.351	0.158	-0.232	DKIAQLKQEIAELEQKNAELKWKNAQLKQ [O4-bA]
	-0.731	0.309		-1.23	-1.67		0.858			-0.763	0.217	-0.197	-0.987						DKNQQLEQKIQELEQKIQELEWENQELKQ [4H3364-bN]
